Data set [1] is described as follows: Rat serum stability at 37 C, remaining active peptide estimated by EC50,4C/EC50,37C in CHO-VPAC2 cAMP assay. On the procedure:
The rat serum is stored at 4° C. until use and is used within two weeks.
On Day 0, two 100 μL aliquots of 10 μM peptide in rat serum are prepared by adding 10 μL peptide stock to 90 μL rat serum for each aliquot. 250 kIU aprotinin/mL is added to one of these aliquots. The aliquot is stored with aprotinin at 4° C. The aliquot is stored without aprotinin at 37° C. The aliquots are incubated for […].
On Day 1, after incubation of the aliquots prepared on day 0 for 24 hours, an incubation buffer containing PBS+1.3 mM CaCl2, 1.2 mM MgCl2, 2 mM glucose, and 0.25 mM IBMX is prepared. A plate with 11 serial 5× dilutions of peptide for the 4° C. and 37° C. aliquot is prepared for each peptide studied. […] The plate(s) are washed with cells twice in incubation buffer. The plates are allowed to hold 50 μL incubation media per well for 15 minutes. 50 μL solution per well is transferred to the cells from the plate prepared with 11 serial 5× dilutions of peptide for the 4° C. and 37° C. aliquot for each peptide studied, using the maximal concentrations that are indicated by the primary screen, in duplicate. This step dilutes the peptide concentration by a factor of two. The cells are incubated at room temperature for 30 minutes. The supernatant is removed. 40 μL/well of the DiscoveRx antibody/extraction buffer is added. The cells are incubated on the shaker (300 rpm) for 1 hour. Normal procedure with the DiscoveRx kit is followed. cAMP standards are included in column 12. EC50 values are determined from the cAMP assay data.

Data set [2] addresses T1, human VPAC2 (Homo sapiens, UniProt P41587).
T1 construct: expressed in transfected cells
T1 sequence (P41587 24-438): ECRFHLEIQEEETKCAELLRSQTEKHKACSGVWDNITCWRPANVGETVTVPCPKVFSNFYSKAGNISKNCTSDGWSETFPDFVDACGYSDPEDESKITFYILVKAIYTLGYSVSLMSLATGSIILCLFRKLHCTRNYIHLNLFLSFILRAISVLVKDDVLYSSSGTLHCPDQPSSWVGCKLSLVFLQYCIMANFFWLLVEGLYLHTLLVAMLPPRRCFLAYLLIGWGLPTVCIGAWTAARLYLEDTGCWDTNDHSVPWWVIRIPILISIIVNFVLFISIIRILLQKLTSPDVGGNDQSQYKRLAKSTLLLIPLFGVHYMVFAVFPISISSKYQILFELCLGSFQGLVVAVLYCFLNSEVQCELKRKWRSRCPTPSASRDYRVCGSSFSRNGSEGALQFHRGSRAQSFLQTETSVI
Description: Alpha screen in vitro potency: human VPAC2-R mediated cAMP generation. Particulars: single results or mean of two or more independent runs. The class given is cell-based.

In data set [3] the target is T1, human VPAC2. Description: Filter binding assay, membranes from stable VPAC2 cell line, 125I-labeled VIP tracer. Particulars: read-out: Human receptor binding (IC50; nM) VPAC2. The protocol: (§1) For this assay, the solutions and equipment include:
(§2) Presoak solution: 0.5% Polyethyleneamine in Aqua dest.
(§3) Buffer for flushing filter plates: 25 mM HEPES pH 7.4
(§4) Blocking buffer: 25 mM HEPES pH 7.4; 0.2% protease free BSA
(§5) Assay buffer: 25 mM HEPES pH 7.4; 0.5% protease free BSA
(§6) Dilution and assay plate: PS-Microplate, U form
(§7) Filtration Plate Multiscreen FB Opaque Plate; […] Type B Glasfiber filter
(§8) In order to prepare the filter plates, the presoak solution is aspirated by vacuum filtration. The plates are flushed twice with 200 μL flush buffer. 200 μL blocking buffer is added to the filter plate. The filter plate is then incubated with 200 μL presoak solution for 1 hour at room temperature.
(§9) The assay plate is filled with […] (2.5 μg) suspended in assay buffer, 25 μL compound (agonist) in assay buffer, and 25 μL tracer (about 40000 cpm) in assay buffer. The filled plate is incubated for 1 hour with shaking.
(§10) The transfer from assay plate to filter plate is conducted. The blocking buffer is aspirated by vacuum filtration and washed two times with flush buffer. 90 μL is transferred from the assay plate to the filter plate. The 90 μL transferred from assay plate is aspirated and washed three times with 200 μL flush buffer. The plastic support is removed. It is dried for 1 hour at 60° C. 30 μL Microscint is added. The count is performed.
(§11) Values reported are single results or the mean of two or more independent runs.

The target of the next data set is T2, human VPAC1 (Homo sapiens, UniProt P32241).
T2 construct: expressed in transfected cells
T2 sequence (P32241 31-457): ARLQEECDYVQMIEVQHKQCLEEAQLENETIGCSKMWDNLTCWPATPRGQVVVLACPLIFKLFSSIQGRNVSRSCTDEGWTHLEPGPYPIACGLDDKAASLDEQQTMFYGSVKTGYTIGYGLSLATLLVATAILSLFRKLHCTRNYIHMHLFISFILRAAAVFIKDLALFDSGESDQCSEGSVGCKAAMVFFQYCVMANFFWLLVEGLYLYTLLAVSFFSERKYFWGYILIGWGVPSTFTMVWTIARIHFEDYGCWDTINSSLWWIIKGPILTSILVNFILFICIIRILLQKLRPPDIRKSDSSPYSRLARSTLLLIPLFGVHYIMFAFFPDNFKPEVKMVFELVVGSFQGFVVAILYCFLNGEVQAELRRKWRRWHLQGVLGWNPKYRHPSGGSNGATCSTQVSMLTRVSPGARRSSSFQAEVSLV
Description: Filter binding assay, membranes from cells transiently transfected with human VPAC1, 125I-labeled VIP tracer. The settings on record: read-out: Human receptor binding (IC50; nM) VPAC1. The protocol: as §1, §2, §3, §4, §5, §6, §7, §8, §9, §10, §11

The target of another data set is T3, human PAC1 (Homo sapiens, UniProt P41586).
T3 construct: expressed in transfected cells
T3 sequence (P41586 21-468): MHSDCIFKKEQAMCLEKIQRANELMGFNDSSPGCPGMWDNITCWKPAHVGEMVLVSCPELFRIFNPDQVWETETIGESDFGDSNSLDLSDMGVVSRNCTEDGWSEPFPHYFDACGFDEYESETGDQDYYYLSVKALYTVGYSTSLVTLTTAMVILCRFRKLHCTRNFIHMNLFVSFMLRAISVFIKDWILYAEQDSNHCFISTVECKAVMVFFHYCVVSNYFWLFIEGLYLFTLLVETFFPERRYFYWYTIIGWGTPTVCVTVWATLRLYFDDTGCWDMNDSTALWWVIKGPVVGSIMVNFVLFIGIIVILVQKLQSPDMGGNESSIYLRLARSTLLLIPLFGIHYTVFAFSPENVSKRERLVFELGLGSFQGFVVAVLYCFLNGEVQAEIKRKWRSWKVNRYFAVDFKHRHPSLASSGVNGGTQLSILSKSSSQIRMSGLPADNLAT
The experiment in a line: Filter binding assay, membranes from cells transiently transfected with human PAC1, 125I-labeled PACAP-27 tracer. Particulars: read-out: Human receptor binding (IC50; nM) PAC1. On the procedure:
as §1, §2, §3, §4, §5, §6, §7, §8, §9, §10, §11

Data set [4] is described as follows: Pharmacokinetic profiles of PEGylated peptides, plasma peptide by RIA. The class given is in vivo, Fisher 344 rats. Particulars: rat, in vivo. The protocol: Pharmacokinetic profiles of PEGylated peptides. Healthy Fisher 344 rats (3 animals per group) are injected with 100 μg compound/kg (compound amount based on peptide content and dissolved in PBS buffer). […] PK parameters are then calculated using a model-independent method (WinNonlin Pro, Pharsight Corp., Mountain View, Calif., USA).

A further data set deals with T4, rat VPAC2 receptor (Rattus norvegicus, UniProt P35000).
T4 construct: expressed in transfected cells; host or cells: CHO-PO cells, transient
T4 sequence (P35000 23-437): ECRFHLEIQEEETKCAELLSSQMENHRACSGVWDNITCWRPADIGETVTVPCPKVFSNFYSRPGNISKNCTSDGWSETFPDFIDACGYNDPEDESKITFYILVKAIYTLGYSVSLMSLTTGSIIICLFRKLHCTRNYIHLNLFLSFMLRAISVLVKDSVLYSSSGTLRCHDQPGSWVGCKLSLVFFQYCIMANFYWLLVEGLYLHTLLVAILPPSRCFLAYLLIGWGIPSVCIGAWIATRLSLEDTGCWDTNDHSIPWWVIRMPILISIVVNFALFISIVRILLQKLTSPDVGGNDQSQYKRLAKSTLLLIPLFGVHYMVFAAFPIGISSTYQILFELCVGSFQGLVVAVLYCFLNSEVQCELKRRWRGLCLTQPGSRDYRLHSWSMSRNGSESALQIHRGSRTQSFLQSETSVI
Description: Rat VPAC2 in vitro potency (cAMP generation, DiscoveRx) in transiently transfected CHO-PO cells. Particulars: CHO-PO cells transiently transfected with rat VPAC2; read-out: rVPAC2 in vitro potency (cAMP generation) EC50. The data set is classed as cell-based. The protocol: Rat receptor selectivity is estimated by comparing functional potency (cAMP generation) in CHO-PO cells transiently expressing rat VPAC1 or rat VPAC2 receptors. CHO-PO cells transiently expressing rat VPAC1 or VPAC2, are seeded with 10,000 cells/well three days before the assay. The cells are kept in 200 μL culture medium. […] The stimuli are present for 30 minutes. The assay buffer is then gently removed.

Like-named read-outs stand apart in the source and are kept apart here. Square brackets hold non-standard residues; d marks the D form. Ends that are not written are not given here. * marks the point of attachment. Hexanoyl = CCCCCC(=O)*; Aib = CC(C)(N)C(=O)O

On to “C6-HSDAVFTDNYTRLRAibQVAAKAibYLQSIKNKRYGGPSSGAPPPC(PEG40K)-NH2 (Hexanoyl-HSDAVFTDNYTRLR[Aib]QVAAK[Aib]YLQSIKNKRYGGPSSGAPPPC(PEG 40 kDa)-NH2) [Agonist P286]”, for which, in data set [1] (after 72 h in rat serum at 37 C, values >100% may represent release of intact peptide from the PEG conjugate), the “Estimated 72 h stability (%)” value is 60.5%. This substance also came in with an EC50 with human VPAC2 [2] of 6.65 nM. Also, the results for the 50% inhibitory concentration (IC50) in the data set with human VPAC2 [3], with human VPAC1 and with human PAC1 were 0.46 nM, > 3000 nM and > 25000 nM, respectively.

Turning to “P217 (Hexanoyl-HSDAVFTDNYTRLRK(PEG 20 kDa)QVAAK(PEG 20 kDa)RYLQSIRNGGPSSGAPPPS) [Agonist P217]”, the EC50 with human VPAC2 [2] was > 3000 nM.

With “P217 (Hexanoyl-HSDAVFTDNYTRLRK(PEG 20 kDa)QVAAK(PEG 20 kDa)RYLQSIRNGGPSSGAPPPS) [Compound P217]”, in data set [4], the Cl/F is 7 mL/h/kg, the Tmax worked out at 20 h, the T½ is given as 49 h and the Vd/F stood at 421 mL/kg.

With “P219 (Hexanoyl-HSDAVFTDNYTRLRRQVAAK(PEG 20 kDa)RYLQSIRNGGPSSGAPPPS) [Agonist P219]”, the EC50 with human VPAC2 [2] is 25.5 nM. The IC50 is 67.9 nM in the data set with human VPAC2 [3] and > 25000 nM with human VPAC1.

Turning to “P219 (Hexanoyl-HSDAVFTDNYTRLRRQVAAK(PEG 20 kDa)RYLQSIRNGGPSSGAPPPS) [Compound P219]”, the “Estimated 72 h stability (%)” value in data set [1] is recorded as 45.6%.

In the case of “P245 (HSDAVFTDNYTRLRKQVAARRYLQSIRNGGPSSGAPPPS; not fully specified (residue 15, N-terminus)) [Agonist P245]”, the EC50 in the data set with human VPAC2 [2] amounted to 450 nM. Besides, the results for the half-inhibitory concentration (IC50) with human VPAC2 [3] and with human VPAC1 were 921 nM and > 25000 nM, respectively.

“P246 (Hexanoyl-HSDAVFTDNYTRLRRQVAAK(PEG 40 kDa)RYLQSIRNGGPSSGAPPPS) [Agonist P246]”: in the data set with human VPAC2 [2], the EC50 was found to be 398 nM. Moreover, the IC50 is > 1000 nM in the data set with human VPAC2 [3] and > 25000 nM in the data set with human VPAC1.

On to “P247 (HSDAVFTDNYTRLRRQVAARKYLQSIRNGGPSSGAPPPS; not fully specified (residue 21, N-terminus)) [Agonist P247]”, for which, in the data set with human VPAC2 [2], the EC50 is 133 nM. Moreover, the figures for the IC50 with human VPAC2 [3] and in the data set with human VPAC1 were 353 nM and > 25000 nM, respectively.

Regarding “P247 (HSDAVFTDNYTRLRRQVAARKYLQSIRNGGPSSGAPPPS; not fully specified (residue 21, N-terminus)) [Compound P247]”, the “Estimated 72 h stability (%)” value in data set [1] is listed as 16.7%.

“P300 (Hexanoyl-HSDAVFTDNYTRLR[Aib]QVAA[Aib]KYLQSIKNKRYGGPSSGAPPPC(PEG 40 kDa)-NH2) [Agonist P300]”: the EC50 with human VPAC2 [2] was 6.62 nM; in the data set with rat VPAC2 receptor it was 5.8 nM. Besides, the values for the IC50 in the data set with human VPAC2 [3], with human VPAC1 and with human PAC1 were 1.76 nM, > 3000 nM and > 25000 nM, respectively.

Regarding “P300 (Hexanoyl-HSDAVFTDNYTRLR[Aib]QVAA[Aib]KYLQSIKNKRYGGPSSGAPPPC(PEG 40 kDa)-NH2) [Compound P300]”, in data set [4], the Cl/F came to 72 mL/h/kg, the time of peak concentration (Tmax) amounted to 10 h, the T½ amounted to 15 h and the Vd/F was determined as 1557 mL/kg.

Source of the values: US20080146500A1, “Selective Vpac2 Receptor Peptide Agonists” (priority 2004, published 2008).
